Results reported in PMC10786891, “Massively parallel profiling of RNA-targeting CRISPR-Cas13d”.
Substitutions are numbered along the chain they refer to. In names and notes the source's numbering stands.

T1: EsCas13d, nuclease-dead (Eubacterium siraeum, UniProt B0MS50, R295A;H300A;R849A;H854A)
T1 sequence: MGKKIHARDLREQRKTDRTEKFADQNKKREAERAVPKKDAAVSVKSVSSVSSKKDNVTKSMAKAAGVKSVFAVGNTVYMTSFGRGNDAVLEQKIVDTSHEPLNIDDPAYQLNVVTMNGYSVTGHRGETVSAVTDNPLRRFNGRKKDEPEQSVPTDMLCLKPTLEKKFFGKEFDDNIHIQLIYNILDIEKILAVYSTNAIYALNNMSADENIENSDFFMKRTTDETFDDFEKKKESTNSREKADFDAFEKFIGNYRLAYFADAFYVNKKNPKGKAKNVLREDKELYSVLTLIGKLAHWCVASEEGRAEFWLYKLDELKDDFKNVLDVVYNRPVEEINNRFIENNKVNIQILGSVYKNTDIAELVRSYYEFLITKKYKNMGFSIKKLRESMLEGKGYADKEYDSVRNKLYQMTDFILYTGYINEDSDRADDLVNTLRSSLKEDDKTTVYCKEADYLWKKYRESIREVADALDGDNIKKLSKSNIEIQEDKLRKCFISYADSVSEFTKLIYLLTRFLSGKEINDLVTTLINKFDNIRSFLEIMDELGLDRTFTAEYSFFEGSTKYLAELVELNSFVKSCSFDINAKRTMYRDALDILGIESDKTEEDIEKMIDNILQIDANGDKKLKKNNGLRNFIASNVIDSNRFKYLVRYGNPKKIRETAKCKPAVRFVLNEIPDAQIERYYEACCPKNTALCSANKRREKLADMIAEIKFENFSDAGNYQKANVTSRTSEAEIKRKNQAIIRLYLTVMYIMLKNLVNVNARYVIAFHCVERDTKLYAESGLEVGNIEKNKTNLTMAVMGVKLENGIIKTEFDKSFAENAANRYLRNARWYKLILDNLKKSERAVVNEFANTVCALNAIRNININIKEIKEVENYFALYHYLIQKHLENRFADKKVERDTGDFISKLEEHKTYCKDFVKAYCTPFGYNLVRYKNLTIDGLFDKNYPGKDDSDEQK

B1: target 3 del8 (mixed)
RNA 1: CACCCGUGCAAAAUUGCAGGGGUCUAAAACGACCUGAAUAUUUCAGAUCAAA
RNA 2: GGGAAUGGAUCCACAUCUACGAAUUCGUUUUUGAUCUGAAAUAUCAGGUCUGCAGAUCGGAAGAGCACACGU
B2: target 3 G4A,U21A (mixed)
RNA 1: B1 RNA 1
RNA 2: GGGAAUGGAUCCACAUCUACGAAUUCGUUUAUGAUCUGAAAUAUUCAAGUCUGCAGAUCGGAAGAGCACACGU
B3: target 3 del1 (mixed)
RNA 1: B1 RNA 1
RNA 2: B1 RNA 2 with C45U, A46C, G47A, U49G, C50U
B4: target 3 C6U,U7A (mixed)
RNA 1: B1 RNA 1
RNA 2: B2 RNA 2 with A31U, U45A, C46U, A48G
B5: target 3 insU 3' of 22,insA 3' of 19 (mixed)
RNA 1: B1 RNA 1
RNA 2: GGGAAUGGAUCCACAUCUACGAAUUCGUUUUUUGAAUCUGAAAUAUUCAGGUCUGCAGAUCGGAAGAGCACACGU
B6: target 3 C1G,G4A (mixed)
RNA 1: B1 RNA 1
RNA 2: B2 RNA 2 with A31U, C51G
B7: target 3 insC 3' of 7,insG 3' of 6 (mixed)
RNA 1: B1 RNA 1
RNA 2: GGGAAUGGAUCCACAUCUACGAAUUCGUUUUUGAUCUGAAAUAUUCCGAGGUCUGCAGAUCGGAAGAGCACACGU
B8: target 3 insA 3' of 4,insA 3' of 1 (mixed)
RNA 1: B1 RNA 1
RNA 2: B7 RNA 2 with C47A, G51U, U52C, C53A
B9: target 3 insA 3' of 22,insA 3' of 4 (mixed)
RNA 1: B1 RNA 1
RNA 2: GGGAAUGGAUCCACAUCUACGAAUUCGUUUAUUGAUCUGAAAUAUUCAGAGUCUGCAGAUCGGAAGAGCACACGU
B10: target 3 C1A,U2G (mixed)
RNA 1: B1 RNA 1
RNA 2: B2 RNA 2 with A31U, A48G, U50G, C51A
B11: target 3 insA 3' of 4,insG 3' of 1 (mixed)
RNA 1: B1 RNA 1
RNA 2: B7 RNA 2 with C47A, G51U, U52C, C53G
B12: target 3 insA 3' of 4,insU 3' of 1 (mixed)
RNA 1: B1 RNA 1
RNA 2: B7 RNA 2 with C47A, G51U, U52C, C53U
B13: target 3 C6U,A12G (mixed)
RNA 1: B1 RNA 1
RNA 2: B2 RNA 2 with A31U, A40G, C46U, A48G
B14: target 3 G3A,A5U (mixed)
RNA 1: B1 RNA 1
RNA 2: B2 RNA 2 with A31U, A47U, A48G, G49A
B15: target 3 del1,del5 (mixed)
RNA 1: B1 RNA 1
RNA 2: GGGAAUGGAUCCACAUCUACGAAUUCGUUUUUGAUCUGAAAUAUUCGGUUGCAGAUCGGAAGAGCACACGU
B16: target 3 U7G,U22C (mixed)
RNA 1: B1 RNA 1
RNA 2: B2 RNA 2 with U30C, A31U, U45G, A48G
B17: target 3 insA 3' of 22,insA 3' of 14 (mixed)
RNA 1: B1 RNA 1
RNA 2: B5 RNA 2 with U31A, A36U, U37C, C38U, U39G, G40A
B18: target 3 insA 3' of 4,insC 3' of 3 (mixed)
RNA 1: B1 RNA 1
RNA 2: B7 RNA 2 with C47A, G51C
B19: target 3 U2G,G14U (mixed)
RNA 1: B1 RNA 1
RNA 2: B2 RNA 2 with A31U, G38U, A48G, U50G
B20: target 3 insG 3' of 8,insG 3' of 5 (mixed)
RNA 1: B1 RNA 1
RNA 2: B7 RNA 2 with U45G, C46U, G48A, A49G
B21: target 3 insA 3' of 8,insG 3' of 7 (mixed)
RNA 1: B1 RNA 1
RNA 2: B7 RNA 2 with U45A, C46U, C47G, G48C
B22: target 3 insA 3' of 21,insA 3' of 2 (mixed)
RNA 1: B1 RNA 1
RNA 2: B9 RNA 2 with A31U, U32A, A50G, G51U, U52A
B23: target 3 insG 3' of 6 (mixed)
RNA 1: B1 RNA 1
RNA 2: GGGAAUGGAUCCACAUCUACGAAUUCGUUUUUGAUCUGAAAUAUUCGAGGUCUGCAGAUCGGAAGAGCACACGU
B24: target 3 insG 3' of 11,insA 3' of 6 (mixed)
RNA 1: B1 RNA 1
RNA 2: B7 RNA 2 with U42G, A43U, U44A, C46U, G48A
B25: target 3 insG 3' of 8 (mixed)
RNA 1: B1 RNA 1
RNA 2: B23 RNA 2 with U45G, C46U, G47C
B26: target 3 U2G,A11C (mixed)
RNA 1: B1 RNA 1
RNA 2: B2 RNA 2 with A31U, A41C, A48G, U50G
B27: target 3 U2A,G3U (mixed)
RNA 1: B1 RNA 1
RNA 2: B2 RNA 2 with A31U, A48G, G49U, U50A
B28: target 3 insG 3' of 7,insG 3' of 5 (mixed)
RNA 1: B1 RNA 1
RNA 2: B7 RNA 2 with C46G, G48A, A49G
B29: target 3 insU 3' of 5,insG 3' of 5 (mixed)
RNA 1: B1 RNA 1
RNA 2: B7 RNA 2 with C47A, G48U, A49G
B30: target 1 insC 3' of 22,insG 3' of 11 (mixed)
RNA 1: CACCCGUGCAAAAAUGCAGGGGUCUAAAACUGAGCGGAUAACCUCUCUAUGG
RNA 2: GGGAAUGGAUCCACAUCUACGAAUUCGUACCCAUAGAGAGGUGUAUCCGCUCACCGAGAUCGGAAGAGCACACGU
B31: target 1 insG 3' of 22,insU 3' of 7 (mixed)
RNA 1: B30 RNA 1
RNA 2: B30 RNA 2 with C31G, G43U, U44A, A45U, U46C, C47U
B32: target 1 insC 3' of 13,insU 3' of 5 (mixed)
RNA 1: B30 RNA 1
RNA 2: GGGAAUGGAUCCACAUCUACGAAUUCGUACCAUAGAGAGCGUUAUCCGUCUCACCGAGAUCGGAAGAGCACACGU

Biological target: T1, EsCas13d, nuclease-dead
Test: crRNA (strand 1, pre-loaded); Mg2+; 40 mM Tris-HCl pH 7.5, 150 mM NaCl, 6 mM MgCl2, 1 mM DTT, 0.1% Tween-20, 0.2 mg/ml BSA; 25 C; 10 min per concentration, then washed
Conditions: tags: His6-TwinStrep-SUMO cleaved; N-terminal SNAP kept (SNAP-Surface 488); label: 3' end held by stalled T7 RNA polymerase

Row | Binder | Kd [nM]
1 | B1 | ~114
2 | B2 | 35.1 ± 3.15
3 | B3 | 27.1 ± 2.55
4 | B4 | 40 ± 4.25
5 | B5 | 77 ± 16
6 | B6 | 15.9 ± 1.8
7 | B7 | 63 ± 6
8 | B8 | 50.5 ± 23
9 | B9 | 49 ± 10
10 | B10 | 73.5 ± 22
11 | B11 | 42 ± 13.5
12 | B12 | 70 ± 32
13 | B13 | 33 ± 5
14 | B14 | 61.5 ± 8.5
15 | B15 | 14 ± 2.2
16 | B16 | 65 ± 26

Row | Binder | Kd [nM]
17 | B17 | 94 ± 36
18 | B18 | 79.5 ± 24.5
19 | B19 | 73.5 ± 13.5
20 | B20 | 62 ± 11
21 | B21 | 72.5 ± 12
22 | B22 | 30.3 ± 2.6
23 | B23 | 8.45 ± 0.75
24 | B24 | 91.5 ± 22
25 | B25 | 52.5 ± 11.5
26 | B26 | 63 ± 25.5
27 | B27 | 68 ± 14.5
28 | B28 | 46.5 ± 7.5
29 | B29 | 4.74 ± 0.56
30 | B30 | 41 ± 4
31 | B31 | 26.5 ± 1.1
32 | B32 | 8.1 ± 0.8
